What is called Kd is the constant that tells how readily two partners part at equilibrium.

The target of assay [1] is human FcγRI (CD64) extracellular domain (human) (UniProt P12314). The assay can be described thus: SPR, antibody captured on Protein A, receptor ECD as analyte, 25 °C.
Assay [2] has as its target human FcγRIIIA_158F (CD16a) extracellular domain (human) (UniProt P08637). The assay can be described thus: SPR, antibody captured on Protein A, steady state, 25 °C.
Assay [3] has as its target human FcγRIIb (CD32b) extracellular domain (human) (UniProt P31994). Described as above.
In assay [4] the target is human FcγRIIA_131H (CD32a) extracellular domain (human) (UniProt P12318). The description is as above.
Chain of human FcγRIIA_131H (CD32a) extracellular domain (human) (P12318 34-217): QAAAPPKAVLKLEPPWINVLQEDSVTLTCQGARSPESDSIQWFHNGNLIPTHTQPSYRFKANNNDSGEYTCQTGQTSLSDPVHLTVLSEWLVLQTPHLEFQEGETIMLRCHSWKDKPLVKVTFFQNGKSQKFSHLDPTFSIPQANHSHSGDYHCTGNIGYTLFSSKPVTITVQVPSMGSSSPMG
Assay [5] has as its target human FcγRIIA_131R (CD32a) extracellular domain (human) (UniProt P12318). The description is as above.
The target of assay [6] is human FcγRIIIA_158V (CD16a) extracellular domain (human) (UniProt P08637). The description is as above.
Chain of human FcγRIIIA_158V (CD16a) extracellular domain (human) (P08637 17-208 F176V): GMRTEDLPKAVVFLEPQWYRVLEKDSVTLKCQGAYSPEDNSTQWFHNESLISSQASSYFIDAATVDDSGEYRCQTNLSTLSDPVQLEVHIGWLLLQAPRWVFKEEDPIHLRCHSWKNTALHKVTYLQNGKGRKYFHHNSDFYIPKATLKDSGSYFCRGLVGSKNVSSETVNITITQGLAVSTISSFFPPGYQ

Chain of human FcγRIIA_131R (CD32a) extracellular domain (human) (P12318 34-217 H167R): as the sequence (P12318 34-217) above, with H134R counted along it
Chain of human FcγRI (CD64) extracellular domain (human) (P12314 16-292): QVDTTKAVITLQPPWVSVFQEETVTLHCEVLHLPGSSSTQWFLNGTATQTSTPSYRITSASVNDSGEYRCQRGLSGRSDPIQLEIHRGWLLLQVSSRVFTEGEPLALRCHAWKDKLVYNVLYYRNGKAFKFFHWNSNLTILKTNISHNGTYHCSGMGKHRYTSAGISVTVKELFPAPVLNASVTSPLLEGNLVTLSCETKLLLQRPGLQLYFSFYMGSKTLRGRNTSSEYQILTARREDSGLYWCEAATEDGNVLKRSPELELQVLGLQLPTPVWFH
Chain of human FcγRIIb (CD32b) extracellular domain (human) (P31994 43-217): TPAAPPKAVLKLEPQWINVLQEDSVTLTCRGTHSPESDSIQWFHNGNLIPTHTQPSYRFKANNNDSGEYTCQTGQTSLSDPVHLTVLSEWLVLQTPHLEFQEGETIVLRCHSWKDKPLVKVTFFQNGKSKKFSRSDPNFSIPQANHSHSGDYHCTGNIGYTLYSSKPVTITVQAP
Chain of human FcγRIIIA_158F (CD16a) extracellular domain (human) (P08637 17-208): as the sequence (P08637 17-208 F176V) above, with V160F counted along it

In the case of Hu IgG1 (antibody), the Kd in assay [1] came to 0.0521 nM; in assay [2] it was 1290 nM; in assay [3], 3110 nM; in assay [4], 680 nM; in assay [5], 740 nM.

With Hu IgG4 SP (antibody), the Kd in assay [1] turned out to be 0.419 nM; in assay [3], 2780 nM; in assay [6] it was 7350 nM; in assay [4], 5310 nM; in assay [5], 2310 nM.
